Assay results as given in patent publication US8236764.

System: Human FV isolated from plasma
Sequence (chain, as listed by the source): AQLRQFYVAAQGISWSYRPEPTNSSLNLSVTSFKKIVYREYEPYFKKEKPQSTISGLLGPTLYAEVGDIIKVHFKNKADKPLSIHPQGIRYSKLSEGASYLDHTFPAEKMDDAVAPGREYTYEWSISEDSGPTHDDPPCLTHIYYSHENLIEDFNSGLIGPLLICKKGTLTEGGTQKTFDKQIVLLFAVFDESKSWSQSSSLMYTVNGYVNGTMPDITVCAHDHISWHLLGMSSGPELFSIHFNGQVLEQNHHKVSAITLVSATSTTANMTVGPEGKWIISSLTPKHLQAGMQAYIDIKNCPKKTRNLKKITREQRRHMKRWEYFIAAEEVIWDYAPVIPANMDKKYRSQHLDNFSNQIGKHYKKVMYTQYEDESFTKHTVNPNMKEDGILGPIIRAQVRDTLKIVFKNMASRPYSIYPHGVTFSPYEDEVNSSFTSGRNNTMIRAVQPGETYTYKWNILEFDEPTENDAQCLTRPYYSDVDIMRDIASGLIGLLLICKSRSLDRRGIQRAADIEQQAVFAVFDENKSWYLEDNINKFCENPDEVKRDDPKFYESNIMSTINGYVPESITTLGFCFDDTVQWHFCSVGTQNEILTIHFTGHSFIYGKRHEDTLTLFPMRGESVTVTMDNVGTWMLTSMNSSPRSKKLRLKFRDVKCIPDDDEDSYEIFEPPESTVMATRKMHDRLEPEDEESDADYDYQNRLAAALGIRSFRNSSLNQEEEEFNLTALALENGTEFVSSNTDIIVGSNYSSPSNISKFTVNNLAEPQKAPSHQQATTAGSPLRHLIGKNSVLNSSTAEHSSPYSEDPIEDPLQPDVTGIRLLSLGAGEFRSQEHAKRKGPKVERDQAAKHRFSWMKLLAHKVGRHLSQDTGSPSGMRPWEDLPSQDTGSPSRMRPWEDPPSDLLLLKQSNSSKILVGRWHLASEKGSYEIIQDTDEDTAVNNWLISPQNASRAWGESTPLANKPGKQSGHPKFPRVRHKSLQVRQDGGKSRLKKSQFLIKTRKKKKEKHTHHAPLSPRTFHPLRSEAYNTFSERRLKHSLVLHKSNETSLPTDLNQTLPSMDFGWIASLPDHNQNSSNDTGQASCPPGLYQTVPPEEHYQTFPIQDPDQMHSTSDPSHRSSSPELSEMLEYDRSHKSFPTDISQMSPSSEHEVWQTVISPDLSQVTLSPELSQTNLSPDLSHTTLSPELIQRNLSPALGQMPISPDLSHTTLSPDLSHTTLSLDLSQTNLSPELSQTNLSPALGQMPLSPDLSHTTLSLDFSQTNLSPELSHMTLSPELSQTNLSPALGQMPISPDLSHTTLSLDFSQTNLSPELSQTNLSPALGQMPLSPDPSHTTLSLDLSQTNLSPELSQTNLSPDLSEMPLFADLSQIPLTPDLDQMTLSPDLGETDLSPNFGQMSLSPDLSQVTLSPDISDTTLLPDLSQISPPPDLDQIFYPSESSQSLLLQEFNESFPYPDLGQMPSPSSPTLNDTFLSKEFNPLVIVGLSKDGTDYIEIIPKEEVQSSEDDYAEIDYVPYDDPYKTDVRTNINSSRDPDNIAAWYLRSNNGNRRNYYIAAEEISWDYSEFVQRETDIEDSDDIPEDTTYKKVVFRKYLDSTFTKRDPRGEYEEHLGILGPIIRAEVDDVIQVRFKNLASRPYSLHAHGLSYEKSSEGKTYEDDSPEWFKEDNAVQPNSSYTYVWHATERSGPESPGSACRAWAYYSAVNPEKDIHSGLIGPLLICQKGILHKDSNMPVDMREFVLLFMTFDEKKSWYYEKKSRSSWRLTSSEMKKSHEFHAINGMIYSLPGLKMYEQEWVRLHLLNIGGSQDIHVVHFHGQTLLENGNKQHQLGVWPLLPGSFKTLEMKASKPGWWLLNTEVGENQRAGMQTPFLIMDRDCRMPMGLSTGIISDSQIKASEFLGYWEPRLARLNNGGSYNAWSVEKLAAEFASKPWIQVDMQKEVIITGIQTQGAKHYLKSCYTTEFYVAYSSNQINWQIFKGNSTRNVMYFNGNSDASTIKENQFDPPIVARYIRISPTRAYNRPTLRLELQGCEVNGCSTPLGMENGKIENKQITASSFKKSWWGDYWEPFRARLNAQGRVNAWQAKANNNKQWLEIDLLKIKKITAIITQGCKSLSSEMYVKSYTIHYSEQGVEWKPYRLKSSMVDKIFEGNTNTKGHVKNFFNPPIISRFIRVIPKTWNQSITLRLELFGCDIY

human thrombin
activation of FV (cofactor activity by PT-based assay using FV-deficient plasma; cleavage by SDS-PAGE): murine thrombin activates human FV in a similar fashion to human thrombin

murine thrombin
activation of FV (cofactor activity by PT-based assay using FV-deficient plasma; cleavage by SDS-PAGE): murine thrombin activates human FV in a similar fashion to human thrombin
